Laboratory results reported in the supplement of paper PMC9112550, “Optimization of the antimicrobial peptide Bac7 by deep mutational scanning” (BMC Biology, 2022).

tested on: Escherichia coli TOP10; assay: shrunken log2 fold change of peptide-encoding DNA abundance (4.5 h post-induction vs induction); higher = less antimicrobial activity (less host growth inhibition); settings: time post-induction: 4.5 h; library: site-saturation at positions 5, 18, 19, 20
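Note: peptides expressed intracellularly from a pBAD plasmid library in pooled LB shake-flask culture, induced with 0.3% L-arabinose, DNA abundance read by NGS, three biological replicates, DESeq2 with apeglm shrinkage.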

Sequence | shrunken log2 fold change
RRIRWRPPRLPRPRPRPAMLPRP | 0.365
RRIRWRPPRLPRPRPRPAMSPRP | 0.403
RRIRWRPPRLPRPRPRPANFPRP | 0.106
RRIRWRPPRLPRPRPRPARFPRP | 0.461
RRIRWRPPRLPRPRPRPASQPRP | 0.271
RRIRWRPPRLPRPRPRPASYPRP | 0.151
RRIRWRPPRLPRPRPRPAVHPRP | 0.631
RRIRWRPPRLPRPRPRPAVLPRP | 0.117
RRIRWRPPRLPRPRPRPAWFPRP | 0.251
RRIRWRPPRLPRPRPRPAWPPRP | 0.558
RRIRWRPPRLPRPRPRPAWTPRP | 0.428
RRIRWRPPRLPRPRPRPCADPRP | 0.579
RRIRWRPPRLPRPRPRPCAHPRP | -0.107
RRIRWRPPRLPRPRPRPCANPRP | 0.0268
RRIRWRPPRLPRPRPRPCDAPRP | 0.138
RRIRWRPPRLPRPRPRPCELPRP | 0.0544
RRIRWRPPRLPRPRPRPCFAPRP | 0.263
RRIRWRPPRLPRPRPRPCKGPRP | -0.186
RRIRWRPPRLPRPRPRPCMLPRP | -0.215
RRIRWRPPRLPRPRPRPCMNPRP | 0.297
RRIRWRPPRLPRPRPRPCPMPRP | -0.0512
RRIRWRPPRLPRPRPRPCTEPRP | -0.0149
RRIRWRPPRLPRPRPRPCTPPRP | -0.0412
RRIRWRPPRLPRPRPRPCVNPRP | 0.0912
RRIRWRPPRLPRPRPRPCWTPRP | 0.0677

Sequence | shrunken log2 fold change
RRIRWRPPRLPRPRPRPCWWPRP | 0.22
RRIRWRPPRLPRPRPRPCYPPRP | -0.466
RRIRWRPPRLPRPRPRPDCDPRP | 0.799
RRIRWRPPRLPRPRPRPDCSPRP | 0.113
RRIRWRPPRLPRPRPRPDCVPRP | 0.197
RRIRWRPPRLPRPRPRPDGYPRP | -0.0244
RRIRWRPPRLPRPRPRPDILPRP | 0.0776
RRIRWRPPRLPRPRPRPDISPRP | -0.135
RRIRWRPPRLPRPRPRPDKHPRP | -0.243
RRIRWRPPRLPRPRPRPDKPPRP | 0.0507
RRIRWRPPRLPRPRPRPDPAPRP | 0.663
RRIRWRPPRLPRPRPRPDPQPRP | -0.00387
RRIRWRPPRLPRPRPRPDPRPRP | 0.751
RRIRWRPPRLPRPRPRPDRTPRP | 0.179
RRIRWRPPRLPRPRPRPDSSPRP | -0.238
RRIRWRPPRLPRPRPRPDTQPRP | -0.0933
RRIRWRPPRLPRPRPRPDVAPRP | 1.3
RRIRWRPPRLPRPRPRPDVMPRP | 0.126
RRIRWRPPRLPRPRPRPDWMPRP | 0.212
RRIRWRPPRLPRPRPRPDWRPRP | -0.0316
RRIRWRPPRLPRPRPRPDYRPRP | -0.0424
RRIRWRPPRLPRPRPRPEAGPRP | 0.877
RRIRWRPPRLPRPRPRPEALPRP | 0.174
RRIRWRPPRLPRPRPRPEAQPRP | 0.779
RRIRWRPPRLPRPRPRPEAYPRP | 0.212

Sequence | shrunken log2 fold change
RRIRWRPPRLPRPRPRPEDIPRP | -0.0433
RRIRWRPPRLPRPRPRPEHGPRP | 0.265
RRIRWRPPRLPRPRPRPEICPRP | 0.127
RRIRWRPPRLPRPRPRPEKIPRP | 2.76
RRIRWRPPRLPRPRPRPELEPRP | 1.35
RRIRWRPPRLPRPRPRPELNPRP | 0.259
RRIRWRPPRLPRPRPRPELPPRP | 0.243
RRIRWRPPRLPRPRPRPELWPRP | 0.729
RRIRWRPPRLPRPRPRPEMDPRP | 0.7
RRIRWRPPRLPRPRPRPEMEPRP | 0.451
RRIRWRPPRLPRPRPRPENAPRP | 0.275
RRIRWRPPRLPRPRPRPEPWPRP | 0.725
RRIRWRPPRLPRPRPRPEQSPRP | 0.678
RRIRWRPPRLPRPRPRPEREPRP | 0.295
RRIRWRPPRLPRPRPRPERHPRP | 0.277
RRIRWRPPRLPRPRPRPERLPRP | 0.277
RRIRWRPPRLPRPRPRPESKPRP | 0.268
RRIRWRPPRLPRPRPRPETSPRP | 0.7
RRIRWRPPRLPRPRPRPETTPRP | 0.234
RRIRWRPPRLPRPRPRPEYMPRP | -0.0342
RRIRWRPPRLPRPRPRPFAIPRP | 0.086
RRIRWRPPRLPRPRPRPFAYPRP | -0.304
RRIRWRPPRLPRPRPRPFCSPRP | -0.0764
RRIRWRPPRLPRPRPRPFDIPRP | -0.838
RRIRWRPPRLPRPRPRPFFDPRP | 0.0993

Sequence | shrunken log2 fold change
RRIRWRPPRLPRPRPRPFFPPRP | -0.0359
RRIRWRPPRLPRPRPRPFFRPRP | 0.33
RRIRWRPPRLPRPRPRPFGKPRP | -0.578
RRIRWRPPRLPRPRPRPFHNPRP | -0.392
RRIRWRPPRLPRPRPRPFHVPRP | -0.0106
RRIRWRPPRLPRPRPRPFILPRP | -0.476
RRIRWRPPRLPRPRPRPFLRPRP | 0.0966
RRIRWRPPRLPRPRPRPFMWPRP | -0.0278
RRIRWRPPRLPRPRPRPFNKPRP | -0.441
RRIRWRPPRLPRPRPRPFPEPRP | -0.145
RRIRWRPPRLPRPRPRPFQFPRP | -0.198
RRIRWRPPRLPRPRPRPFRCPRP | -0.257
RRIRWRPPRLPRPRPRPFSIPRP | -0.228
RRIRWRPPRLPRPRPRPFTCPRP | 0.000407
RRIRWRPPRLPRPRPRPFTVPRP | -0.512
RRIRWRPPRLPRPRPRPFWEPRP | 0.121
RRIRWRPPRLPRPRPRPFWRPRP | 0.111
RRIRWRPPRLPRPRPRPGAGPRP | 0.796
RRIRWRPPRLPRPRPRPGCIPRP | 0.293
RRIRWRPPRLPRPRPRPGCQPRP | -0.0225
RRIRWRPPRLPRPRPRPGEGPRP | 0.154
RRIRWRPPRLPRPRPRPGFMPRP | 0.212
RRIRWRPPRLPRPRPRPGFWPRP | 0.494
RRIRWRPPRLPRPRPRPGGWPRP | 0.851
RRIRWRPPRLPRPRPRPGHIPRP | -0.0732

Sequence | shrunken log2 fold change
RRIRWRPPRLPRPRPRPGHKPRP | -0.14
RRIRWRPPRLPRPRPRPGHSPRP | 0.0135
RRIRWRPPRLPRPRPRPGHWPRP | 0.335
RRIRWRPPRLPRPRPRPGIYPRP | -0.137
RRIRWRPPRLPRPRPRPGLCPRP | 0.412
RRIRWRPPRLPRPRPRPGMCPRP | 0.437
RRIRWRPPRLPRPRPRPGNGPRP | -0.0519
RRIRWRPPRLPRPRPRPGNVPRP | -0.127
RRIRWRPPRLPRPRPRPGPDPRP | 0.533
RRIRWRPPRLPRPRPRPGPFPRP | 0.125
RRIRWRPPRLPRPRPRPGQPPRP | 0.326
RRIRWRPPRLPRPRPRPGRKPRP | -0.0532
RRIRWRPPRLPRPRPRPGSQPRP | 0.584
RRIRWRPPRLPRPRPRPGSVPRP | 0.306
RRIRWRPPRLPRPRPRPGTEPRP | 0.403
RRIRWRPPRLPRPRPRPGTTPRP | 0.0295
RRIRWRPPRLPRPRPRPGVPPRP | 0.184
RRIRWRPPRLPRPRPRPGYIPRP | 0.226
RRIRWRPPRLPRPRPRPHAGPRP | -0.0783
RRIRWRPPRLPRPRPRPHANPRP | -0.00914
RRIRWRPPRLPRPRPRPHCVPRP | -0.169
RRIRWRPPRLPRPRPRPHEKPRP | -0.00914
RRIRWRPPRLPRPRPRPHENPRP | 0.0568
RRIRWRPPRLPRPRPRPHFDPRP | -0.0757
RRIRWRPPRLPRPRPRPHGDPRP | 0.145

Sequence | shrunken log2 fold change
RRIRWRPPRLPRPRPRPHHHPRP | -0.428
RRIRWRPPRLPRPRPRPHIEPRP | 0.0376
RRIRWRPPRLPRPRPRPHIKPRP | -0.243
RRIRWRPPRLPRPRPRPHKEPRP | -0.0233
RRIRWRPPRLPRPRPRPHKKPRP | 0.028
RRIRWRPPRLPRPRPRPHKNPRP | -0.13
RRIRWRPPRLPRPRPRPHLYPRP | -0.125
RRIRWRPPRLPRPRPRPHMAPRP | 0.00551
RRIRWRPPRLPRPRPRPHNEPRP | -0.476
RRIRWRPPRLPRPRPRPHPPPRP | 0.348
RRIRWRPPRLPRPRPRPHQIPRP | -0.154
RRIRWRPPRLPRPRPRPHQSPRP | 0.0383
RRIRWRPPRLPRPRPRPHRGPRP | -0.0412
RRIRWRPPRLPRPRPRPHSSPRP | -0.0864
RRIRWRPPRLPRPRPRPHTGPRP | -0.233
RRIRWRPPRLPRPRPRPHTTPRP | 0.0145
RRIRWRPPRLPRPRPRPHTVPRP | 0.00981
RRIRWRPPRLPRPRPRPHVNPRP | -0.315
RRIRWRPPRLPRPRPRPHWGPRP | 0.171
RRIRWRPPRLPRPRPRPHWVPRP | 0.0436
RRIRWRPPRLPRPRPRPIANPRP | 0.00334
RRIRWRPPRLPRPRPRPICQPRP | -0.146
RRIRWRPPRLPRPRPRPICRPRP | -0.0371
RRIRWRPPRLPRPRPRPIDHPRP | -0.166
RRIRWRPPRLPRPRPRPIDLPRP | 0.0151
